Experimental data reported in publication PMC2779157.

How the values were obtained:
IRF3 = IRF3 (UniProt Q14653); assay: Superdex-200 gel filtration after cell-free reaction; conditions: reference: reaction without virus-activated mitochondria; sites S385,S386,S396
[1] = target: IRF3, activated in vitro by virus-activated mitochondria (P5) and cytosolic extract (UniProt Q14653); assay: SEC

Chain of IRF3 (Q14653 whole entry, change not shown): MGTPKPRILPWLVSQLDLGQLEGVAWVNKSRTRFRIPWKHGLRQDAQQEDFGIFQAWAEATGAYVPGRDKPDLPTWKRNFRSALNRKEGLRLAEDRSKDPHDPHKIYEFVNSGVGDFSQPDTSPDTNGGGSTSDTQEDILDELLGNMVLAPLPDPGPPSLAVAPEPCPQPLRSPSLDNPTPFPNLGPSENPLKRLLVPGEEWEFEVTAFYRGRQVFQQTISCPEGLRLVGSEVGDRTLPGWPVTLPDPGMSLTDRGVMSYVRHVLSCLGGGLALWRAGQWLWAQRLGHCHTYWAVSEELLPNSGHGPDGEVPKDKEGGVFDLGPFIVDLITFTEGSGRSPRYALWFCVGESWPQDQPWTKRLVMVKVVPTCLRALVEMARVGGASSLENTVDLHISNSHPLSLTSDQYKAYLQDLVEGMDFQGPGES

Substance | other: apparent molecular mass (IRF3) | stoichiometry N [1]
IRF3 (from UniProt Q14653) reaction with virus-activated mitochondria (P5) | gained; reference 150 | 
IRF3, activated in vitro by virus-activated mitochondria (P5) and cytosolic extract (from UniProt Q14653 1-427) (natural protein) |  | 2
